These results are taken from patent US5817484A, “Thermoresistant α-1-antitrypsin mutein” (priority 1993, dated 1998).

Data set [1] concerns elastase. The experiment in a line: Association constant to elastase (Beatty's method). It is filed as biochemical. On the procedure: (§1) Specifically, the AT's activity to inhibit elastase was evaluated by: mixing elastase and AT extract to react them, adding thereto a substrate (prepared by dissolving succinyl-alanyl-alanyl-alanyl-para-nitroanilide (SIGMA S4760) in dimethyl sulfoxide) and measuring the change of absorbency at 410 nm to determine the residual elastase activity. The thermal stability of AT was estimated by determining its activity of inhibiting elastase, using AT treated at 55° C. in case cell extract is used or at 57° to 58° C. in case a purified AT is used. As controls, a wild-type AT produced in E. coli or yeast cell and natural AT isolated and purified from human plasma were used.
From the reaction mixture containing the same concentrations (8 nM) of elastase and AT, samples of the mixture were taken every minute for 10 mins. 1 mM succinyl-alanyl-alanyl-alanyl-p-nitroanilide (SIGMAS4760) was added as a substrate to each sample. The elastase activity of each sample was determined by measuring the absorbency at 410 nm, and then the association constant was calculated from the plot slope of reciprocal of elastase concentration vs time.

For data set [2], the system named is elastase. The experiment in a line: Thermal inactivation of purified AT at 57-58° C., remaining elastase inhibiting activity. It is filed as physicochemical. Particulars: for half-life: purified AT. How it is done:
as §1, with “The activity of AT was measured by evaluating the inhibition by AT of the elastase's activity to degrade peptides in accordance with the procedure described by Travis & Johnson in Methods in Enzymol., 80, 754 (1981). Specifically,” for “Specifically,”
The elastase inhibiting activity of AT was evaluated by using a modified method described by Travis et al. (Travis & Jonhson, Methods in Enzymol. 80, 754 (1981)). As a reaction buffer, 50 mM Tris (pH 8.0) containing 50 mM NaCl was used, and 15 mM succinyl-alanyl-alanyl-alanyl-paranitro-anilide (SIGMA S4760) dissolved in dimethyl-sulfoxide was used as a substrate for elastase. An enzyme solution was prepared by dissolving elastase to the concentration of 0.3 μM in the reaction buffer solution containing 50% glycerol.
(§2) The elastase inhibiting activity of AT was determined as follows: 10 μl of the enzyme solution, 10 to 50 μl of the AT extracts and the reaction buffer solution were mixed to make the final volume of 60 μl, and then reacted for 10 mins. After 430 μl of the reaction buffer solution and 10 μl of the substrate were added thereto, the change of absorbency at 410 nm was immediately measured for 3 mins.
For the comparison of their thermal stability, various kinds of AT muteins were incubated at 57° C., from which samples were taken every minute. Then the remaining activity of AT muteins was determined in the same manner as described in Example 1 above and their half-life and thermal inactivation rate were calculated from the slope of the plot of a logalithmic value of the remaining activity vs time (see FIG. 3).

Data set [3] has as its system elastase. Kind of data set: Thermal stability at 55° C. of AT expressed in E. coli, elastase inhibiting activity measured every minute. Conditions: FIG. 8. The class given is physicochemical. On the procedure:
as §1, with “The activity of AT was measured by evaluating the inhibition by AT of the elastase's activity to degrade peptides in accordance with the procedure described by Travis & Johnson in Methods in Enzymol., 80, 754 (1981). Specifically,” for “Specifically,”, “As controls, a wild-type AT produced in E. coli or yeast cell and natural AT isolated and purified from human plasma were used.” left out
The elastase inhibiting activity of AT was evaluated by using a modified method described by Travis et al. (Travis & Jonhson, Methods in Enzymol. 80, 754 (1981)). […]
as §2

Setting [4] is: Table II, ATs produced in yeast and controls.

For orientation: half-life means the time needed for the level to fall by half in the phase considered. For the substance “Human plasma AT: natural α-1-antitrypsin from human plasma (A9204), purified over Affi-Gel Blue and mono-Q columns”, the association constant in the data set on elastase [1] (Table I, 8 nM elastase and 8 nM AT, purified AT) was 1.7e+06 M⁻¹ s⁻¹; in the data set on elastase [1] (setting [4]), 1.7e+06 M⁻¹ s⁻¹. Moreover, the half-life turned out to be 49.7 min in the data set with elastase [2] (at 57° C.) and 35.2 min in the data set on elastase [2] (at 58° C.).
For “multiple mutant AT wherein the 51st residue is leucine and the 374th is isoleucine: α-1-antitrypsin with two replacements: 51st leucine and 374th isoleucine, expressed in E. coli”, the “thermoresistance, times higher than the single mutant ATs” value with elastase [3] is listed as “at least 300 times”.
As to “wild-type yeast AT (phenylalanine): wild-type α-1-antitrypsin produced in Saccharomyces diastaticus (pGAT11)”, the association constant in the data set on elastase [1] (setting [4]) was found to be 1.5e+06 M⁻¹ s⁻¹. Also, in the data set on elastase [2] (at 58° C.), the “thermal resistance, times higher than that of the wild-type recombinant AT expressed in E. coli” value is listed as 5.3 times and the half-life was 6.9 min. Besides, the “thermal resistance (in words)” value with elastase [2] (at 58° C., produced in yeast) is “a lower thermoresistance than that of the human plasma AT”.
